Experimental data taken from patent US20220282217A1, “COMPOSITIONS AND METHODS FOR PREPARING T CELL COMPOSITIONS AND USES THEREOF” (priority 2019, published 2022).
Each block holds one binder with its values, some of them ahead of it.

Key:
Details in all cases: remark: other sources report otherwise
HLA-A02.01 (human) [1] = experiment: pMHC-I complex dissociation at 37 C, 125I-b2m, half-life
HLA-A24.02 (human) [2] = experiment: as above
HLA-A02.01 (human) [3] = experiment: competition vs radiolabeled reference peptide on purified MHC I, gel filtration
HLA-A24.02 (human) [4] = experiment: as above
HLA-A02.01 (human) [5] = experiment: pMHC-I dissociation half-life, 125I-b2m
HLA-A24.02 (human) [6] = experiment: pMHC-I dissociation half-life, 125I-b2m
HLA-A02.01 (human) [7] = experiment: competition with radiolabeled reference peptide, purified MHC I
HLA-A24.02 (human) [8] = experiment: as above
[9] = biological target: T1, HLA-A02.01 class I MHC molecule (prepared complex) (human); experiment: displacement of radiolabeled reference peptide from class I MHC, gel filtration; 'Affinity (nM)'
[10] = biological target: HLA-A24.02 class I MHC molecule (prepared complex) (human); experiment: dissociation of peptide-MHC-I complex at 37 C, 125I-labelled b2m, scintillation
[11] = biological target: T1, HLA-A02.01 class I MHC molecule …; experiment: as above
[12] = biological target: HLA class I molecule A02.01; experiment: pMHC-I dissociation half-life, 125I-b2m
[13] = biological target: HLA class I molecule B08.01; experiment: pMHC-I dissociation half-life, 125I-b2m
HLA-B07.02 (human) [14] = experiment: pMHC-I complex dissociation at 37 C, 125I-b2m, half-life
HLA-B07.02 (human) [15] = experiment: competition vs radiolabeled reference peptide on purified MHC I, gel filtration
[16] = biological target: HLA class I molecule A03.01; experiment: pMHC-I dissociation half-life, 125I-b2m
[17] = biological target: HLA class I molecule A03.01; experiment: competition with radiolabeled reference peptide on purified MHC I
[18] = biological target: HLA class I molecule A02.01; experiment: as above

Binder: IMQLMPFGCL
Stability (T1/2 (h)) (HLA-A02.01 (human) [1]): 0.5 h
Stability (T1/2 (h)) (HLA-A24.02 (human) [2]): 0 h
IC50 (HLA-A02.01 (human) [3]): 837 nM
IC50 (HLA-A24.02 (human) [4]): 18100 nM

Binder: TQLARFFPI
Stability (T1/2 (h)) (HLA-A02.01 (human) [5]): 0 h
Stability (T1/2 (h)) (HLA-A24.02 (human) [6]): 0 h
IC50 (HLA-A02.01 (human) [7]): 19 nM
IC50 (HLA-A24.02 (human) [8]): 52 nM

Binder: LVVVGACGV
Measured stability (HLA-A02.01 (human) [5]): 0.6 h
Measured Affinity (HLA-A02.01 (human) [7]): 667 nM

Binder: LQSLPRFILM
Stability (T1/2 (h)) (HLA-A02.01 (human) [1]): 0 h
IC50 (HLA-A02.01 (human) [3]): 413 nM

Binder: WMTETLFDI
Stability (T1/2 (h)) (HLA-A02.01 (human) [5]): 4 h
Stability (T1/2 (h)) (HLA-A24.02 (human) [6]): 0 h
IC50 (HLA-A02.01 (human) [7]): 14 nM
IC50 (HLA-A24.02 (human) [8]): 713 nM

Binder: FLLALWECSL
Stability (T1/2 (h)) [12]: 10.8 h
Stability (T1/2 (h)) [13]: 0 h

Binder: FLQEQYHEA
Stability (T1/2 (h)) [12]: 9.5 h
Stability (T1/2 (h)) [13]: 0 h

Binder: MQLMPFGCL
Stability (T1/2 (h)) (HLA-A02.01 (human) [1]): 0.4 h
Stability (T1/2 (h)) (HLA-B07.02 (human) [14]): 0 h
IC50 (HLA-B07.02 (human) [15]): 2270 nM

Binder: MQLMPFGCLL
Stability (T1/2 (h)) (HLA-A02.01 (human) [1]): 0.4 h
Stability (T1/2 (h)) (HLA-A24.02 (human) [2]): 0 h
IC50 (HLA-A02.01 (human) [3]): 20 nM
IC50 (HLA-A24.02 (human) [4]): 23600 nM

Binder: QLIMQLMPFG […, listing 1 of 2 here]
Stability (T1/2 (h)) (HLA-A02.01 (human) [1]): 0 h
IC50 (HLA-A02.01 (human) [3]): 5930 nM

Binder: SLLNYLREM
Stability (T1/2 (h)) (HLA-A02.01 (human) [1]): 3 h
Stability (T1/2 (h)) (HLA-B07.02 (human) [14]): 0 h
IC50 (HLA-A02.01 (human) [3]): 87 nM
IC50 (HLA-B07.02 (human) [15]): 1110 nM

Binder: FQNGKMALSA
Stability (T1/2 (h)) [12]: 0 h
Stability (T1/2 (h)) [13]: 0 h
IC50 [18]: 6160 nM

Binder: PLYGLLLEML
Stability (T1/2 (h)) (HLA-A02.01 (human) [1]): 0 h
Stability (T1/2 (h)) (HLA-A24.02 (human) [2]): 6.3 h
IC50 (HLA-A02.01 (human) [3]): 797 nM
IC50 (HLA-A24.02 (human) [4]): 444 nM

Binder: QLIMQLMPFG [EGFR_T790M peptide …, listing 2 of 2 here]
IC50 [9]: 5210 nM
Stability (half-life (hr.)) [11]: 0 min

Binder: ALQPLQPHA
IC50 [18]: 604 nM

Binder: MALNSEALSV
Stability (T1/2 (h)) (HLA-A02.01 (human) [5]): 0.7 h
IC50 (HLA-A02.01 (human) [7]): 129 nM

Binder: CMGSMNRRPI
Stability (T1/2 (h)) (HLA-A02.01 (human) [5]): 0 h
IC50 (HLA-A02.01 (human) [7]): 1990 nM

Binder: WLHKRGKYI
Stability (T1/2 (h)) (HLA-A02.01 (human) [1]): 1.2 h
Stability (T1/2 (h)) (HLA-B07.02 (human) [14]): 0 h
IC50 (HLA-A02.01 (human) [3]): 1250 nM
IC50 (HLA-B07.02 (human) [15]): 2650 nM

Binder: VLHECNSLYI
Stability (T1/2 (h)) [16]: 0 h
Stability (T1/2 (h)) [12]: 5.1 h
IC50 [17]: 10500 nM
IC50 [18]: 10 nM

Binder: YTLDVLERC
Stability (T1/2 (h)) (HLA-A02.01 (human) [1]): 6.6 h

Binder: LIMQLMPFG […, listing 2 of 2 here]
Stability (T1/2 (h)) (HLA-A02.01 (human) [1]): 0 h
IC50 (HLA-A02.01 (human) [3]): 3510 nM

Binder: MANGSLLNYL
Stability (T1/2 (h)) (HLA-A02.01 (human) [1]): 0 h
Stability (T1/2 (h)) (HLA-B07.02 (human) [14]): 0 h
IC50 (HLA-A02.01 (human) [3]): 1080 nM
IC50 (HLA-B07.02 (human) [15]): 17700 nM

Binder: LVVVGADGV
Measured stability (HLA-A02.01 (human) [5]): 0 h
Measured Affinity (HLA-A02.01 (human) [7]): 977 nM

Binder: VMAGLGSPYV
Stability (T1/2 (h)) [16]: 0 h
Stability (T1/2 (h)) [12]: 2.9 h
IC50 [17]: 11200 nM
IC50 [18]: 102 nM

More lines, now with the values ahead:

IC50 [9]: 193 nM
Stability (half-life (hr.)) [10]: 22.1 min
Stability (half-life (hr.)) [11]: 20.4 min
Binder: QLIMQLMPF [EGFR_T790M peptide …, listing 1 of 2 here]

Measured stability (HLA-A02.01 (human) [5]): 0.6 h
Binder: LVVVGAVGV

Stability (T1/2 (h)) (HLA-A02.01 (human) [1]): 0 h
IC50 (HLA-A02.01 (human) [3]): 8540 nM
Binder: STVQLIMQL […, listing 1 of 2 here]

Stability (T1/2 (h)) [16]: 0 h
Stability (T1/2 (h)) [12]: 0.6 h
Stability (T1/2 (h)) [13]: 0.4 h
IC50 [17]: 21100 nM
Binder: YMFLKAESKI

Stability (T1/2 (h)) (HLA-A02.01 (human) [1]): 0.3 h
Stability (T1/2 (h)) (HLA-A24.02 (human) [2]): 0.4 h
IC50 (HLA-A02.01 (human) [3]): 227 nM
Binder: QLIMQLMPF […, listing 2 of 2 here]

Stability (T1/2 (h)) (HLA-A02.01 (human) [5]): 0.3 h
Stability (T1/2 (h)) (HLA-A24.02 (human) [6]): 0 h
IC50 (HLA-A02.01 (human) [7]): 1200 nM
IC50 (HLA-A24.02 (human) [8]): 16300 nM
Binder: SMNRRPILTI

Stability (T1/2 (h)) (HLA-A02.01 (human) [1]): 0 h
Stability (T1/2 (h)) (HLA-A24.02 (human) [2]): 0 h
IC50 (HLA-A02.01 (human) [3]): 5490 nM
IC50 (HLA-A24.02 (human) [4]): 4560 nM
Binder: VQLIMQLMPF

IC50 [9]: 7260 nM
Stability (half-life (hr.)) [11]: 0 min
Binder: STVQLIMQL [EGFR_T790M peptide …, listing 2 of 2 here]

Stability (T1/2 (h)) (HLA-A02.01 (human) [1]): 0.5 h
Stability (T1/2 (h)) (HLA-B07.02 (human) [14]): 0.2 h
IC50 (HLA-A02.01 (human) [3]): 125 nM
IC50 (HLA-B07.02 (human) [15]): 9720 nM
Binder: RVAKIADFGM

IC50 [18]: 174 nM
Binder: LIVSRTLLL

IC50 [9]: 1210 nM
Stability (half-life (hr.)) [11]: 22.2 min
Binder: IMQLMPFGC [EGFR_T790M peptide …, listing 1 of 2 here]

Stability (T1/2 (h)) (HLA-A02.01 (human) [5]): 0 h
IC50 (HLA-A02.01 (human) [7]): 9610 nM
Binder: NQRPILTII

Stability (T1/2 (h)) (HLA-A02.01 (human) [5]): 3.8 h
Stability (T1/2 (h)) (HLA-A24.02 (human) [6]): 0.2 h
IC50 (HLA-A02.01 (human) [7]): 516 nM
IC50 (HLA-A24.02 (human) [8]): 6980 nM
Binder: MNWRPILTI

Stability (T1/2 (h)) (HLA-A02.01 (human) [1]): 0.4 h
IC50 (HLA-A02.01 (human) [3]): 1610 nM
Binder: IMQLMPFGC […, listing 2 of 2 here]

IC50 [9]: 3340 nM
Stability (half-life (hr.)) [11]: 0 min
Binder: LIMQLMPFG [EGFR_T790M peptide …, listing 1 of 2 here]

Stability (T1/2 (h)) (HLA-A02.01 (human) [1]): 9.4 h
IC50 (HLA-A02.01 (human) [3]): 175 nM
Binder: SVCFFFFSV

Stability (T1/2 (h)) (HLA-A02.01 (human) [1]): 0.5 h
Stability (T1/2 (h)) (HLA-A24.02 (human) [2]): 0.2 h
Stability (T1/2 (h)) (HLA-B07.02 (human) [14]): 0.4 h
IC50 (HLA-A02.01 (human) [3]): 26 nM
IC50 (HLA-A24.02 (human) [4]): 2770 nM
IC50 (HLA-B07.02 (human) [15]): 583 nM
Binder: SLPRFILMEL

Stability (T1/2 (h)) (HLA-A02.01 (human) [5]): 0.4 h
Stability (T1/2 (h)) (HLA-A24.02 (human) [6]): 0 h
IC50 (HLA-A02.01 (human) [7]): 346 nM
IC50 (HLA-A24.02 (human) [8]): 4450 nM
Binder: CMGGMNWRPI

Stability (T1/2 (h)) (HLA-A02.01 (human) [1]): 0 h
IC50 (HLA-A02.01 (human) [3]): 4440 nM
Binder: YMANGSLLN

Stability (T1/2 (h)) (HLA-A24.02 (human) [2]): 1 h
IC50 (HLA-A24.02 (human) [4]): 995 nM
Binder: FLPSTLKSL

Stability (T1/2 (h)) (HLA-A02.01 (human) [5]): 0.5 h
IC50 (HLA-A02.01 (human) [7]): 282 nM
Binder: GMNWRPILTI

Stability (T1/2 (h)) (HLA-A02.01 (human) [1]): 0 h
IC50 (HLA-A02.01 (human) [3]): 4410 nM
Binder: LTINKEEAL
